Results as given in PMC10398351, “Structural and molecular insight into antibody recognition of dynamic neoepitopes in membrane tethered MUC1 of pancreatic cancer cells and secreted exosomes†” (RSC Chemical Biology, 2023).

B1: Alexa488-conjugated SN-131 (antibody, V domains shown)
VH: QVQLQQSGAELARPGASVKLSCKASGYTFTNYGLSWVKQRTGQGLEWIGENHPGSGIIYHNEKFRGKATLTADKSSSTAYVQLSSLTSEDSAVYFCARSSGTRGFAYWGQGTLVTVSA
VL: DVLMTQTPLSLPVSLGDQASISCRSSQSIVHSNGNTYLEWYLQKPGQSPKLLIYKVSNRFSGVPDRFSGSGSGTDFTLKISRVEAEDLGVYYCFQGSHGPWTFGGGTKLEIK
notes: as the heavy chain of m1; Fab chains in PDB 8HRH; as the light chain of m1; IgG2a
B2: AP (alkaline phosphatase) labelled SN-131 mAb (antibody, V domains shown)
VH: QVQLQQSGAELARPGASVKLSCKASGYTFTNYGLSWVKQRTGQGLEWIGENHPGSGIIYHNEKFRGKATLTADKSSSTAYVQLSSLTSEDSAVYFCARSSGTRGFAYWGQGTLVTVSA
VL: DVLMTQTPLSLPVSLGDQASISCRSSQSIVHSNGNTYLEWYLQKPGQSPKLLIYKVSNRFSGVPDRFSGSGSGTDFTLKISRVEAEDLGVYYCFQGSHGPWTFGGGTKLEIK
notes: as for B1

Legend:
PANC-1 cell surface MUC1 = biological target: T1, PANC-1 cell surface MUC1 (Homo sapiens, PANC-1 cells, UniProt P15941, O-glycans ST, T and/or Tn at the Thr of the Asp-Thr-Arg region, as the paper concludes); test: flow cytometry on cells; PANC-1 cells with Alexa 488 conjugated SN-131, 2 h on ice in PBS/EDTA, without or with 10 μM MUC1-5ST (8); details: one partner purified
T1 construct: MUC1, type 1 single-pass transmembrane mucin, endogenous in the human pancreatic cancer cell line PANC-1 (ATCC CRL-1469); also called endogenous MUC1 TRD; membrane-tethered MUC1; source: endogenous, on PANC-1 cells
T1 sequence (P15941 24-1255): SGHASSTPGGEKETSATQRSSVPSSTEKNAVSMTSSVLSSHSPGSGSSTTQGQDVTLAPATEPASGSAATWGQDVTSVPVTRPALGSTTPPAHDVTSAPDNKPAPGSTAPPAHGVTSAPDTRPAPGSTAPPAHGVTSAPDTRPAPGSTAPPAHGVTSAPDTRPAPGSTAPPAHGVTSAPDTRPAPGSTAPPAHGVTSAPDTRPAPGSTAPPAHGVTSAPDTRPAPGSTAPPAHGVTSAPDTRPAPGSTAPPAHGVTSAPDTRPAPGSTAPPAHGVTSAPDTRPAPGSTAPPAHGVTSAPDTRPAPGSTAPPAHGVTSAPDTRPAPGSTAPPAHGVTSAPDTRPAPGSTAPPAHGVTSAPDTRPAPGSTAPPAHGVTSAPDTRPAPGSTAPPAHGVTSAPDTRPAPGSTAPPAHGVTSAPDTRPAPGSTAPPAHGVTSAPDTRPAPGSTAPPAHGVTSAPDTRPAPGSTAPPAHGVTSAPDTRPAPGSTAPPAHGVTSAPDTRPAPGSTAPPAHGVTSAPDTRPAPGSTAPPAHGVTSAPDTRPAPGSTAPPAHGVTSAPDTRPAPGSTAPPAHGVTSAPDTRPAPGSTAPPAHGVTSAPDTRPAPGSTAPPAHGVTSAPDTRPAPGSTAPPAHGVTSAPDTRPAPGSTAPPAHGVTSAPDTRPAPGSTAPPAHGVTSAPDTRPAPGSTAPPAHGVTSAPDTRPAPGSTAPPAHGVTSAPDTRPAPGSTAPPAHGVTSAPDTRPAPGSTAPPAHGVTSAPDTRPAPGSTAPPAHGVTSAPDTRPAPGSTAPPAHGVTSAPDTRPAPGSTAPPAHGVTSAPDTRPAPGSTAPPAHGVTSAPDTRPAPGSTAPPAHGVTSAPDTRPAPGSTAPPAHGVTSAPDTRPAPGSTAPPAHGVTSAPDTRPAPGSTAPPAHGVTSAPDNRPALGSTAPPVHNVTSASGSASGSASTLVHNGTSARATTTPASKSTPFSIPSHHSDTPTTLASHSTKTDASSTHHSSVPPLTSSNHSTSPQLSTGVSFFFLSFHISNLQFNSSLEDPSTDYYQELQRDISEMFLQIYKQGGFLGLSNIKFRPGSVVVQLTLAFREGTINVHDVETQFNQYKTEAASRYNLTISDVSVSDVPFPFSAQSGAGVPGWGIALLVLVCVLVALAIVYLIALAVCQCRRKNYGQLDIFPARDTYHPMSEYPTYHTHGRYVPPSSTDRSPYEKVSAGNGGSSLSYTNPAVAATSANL

[1] = biological target: T2, MUC1 TRD on exosomes released from PANC-1 cells (Homo sapiens, PANC-1 exosomes, UniProt P15941); test: ELISA; sandwich: exosomes from PANC-1 cells captured by coated anti-CD9 or anti-CD63 mAb, detected with AP-labelled SN-131 (1 μg/mL), room temperature; details: one partner purified
T2 construct: also called exosomal MUC1 TRD-STs; cargo MUC1 TRD; source: endogenous, exosomes isolated by ultracentrifugation from PANC-1 culture supernatant
T2 sequence (P15941 24-1255): as above

Binder | binding result (PANC-1 cell surface MUC1) | binding result [1]
B1 | binds | –
B2 | – | binds
